Experimental data reported in patent US20260209386A1 (MYTHIC THERAPEUTICS, published 2026).

T1: Human PTK7 Protein, His Tag (Acro Biosystems) (human, UniProt Q13308 31-704)
T1 construct: Bought His-tagged protein; also called CCK4; not shown: His tag
T1 sequence: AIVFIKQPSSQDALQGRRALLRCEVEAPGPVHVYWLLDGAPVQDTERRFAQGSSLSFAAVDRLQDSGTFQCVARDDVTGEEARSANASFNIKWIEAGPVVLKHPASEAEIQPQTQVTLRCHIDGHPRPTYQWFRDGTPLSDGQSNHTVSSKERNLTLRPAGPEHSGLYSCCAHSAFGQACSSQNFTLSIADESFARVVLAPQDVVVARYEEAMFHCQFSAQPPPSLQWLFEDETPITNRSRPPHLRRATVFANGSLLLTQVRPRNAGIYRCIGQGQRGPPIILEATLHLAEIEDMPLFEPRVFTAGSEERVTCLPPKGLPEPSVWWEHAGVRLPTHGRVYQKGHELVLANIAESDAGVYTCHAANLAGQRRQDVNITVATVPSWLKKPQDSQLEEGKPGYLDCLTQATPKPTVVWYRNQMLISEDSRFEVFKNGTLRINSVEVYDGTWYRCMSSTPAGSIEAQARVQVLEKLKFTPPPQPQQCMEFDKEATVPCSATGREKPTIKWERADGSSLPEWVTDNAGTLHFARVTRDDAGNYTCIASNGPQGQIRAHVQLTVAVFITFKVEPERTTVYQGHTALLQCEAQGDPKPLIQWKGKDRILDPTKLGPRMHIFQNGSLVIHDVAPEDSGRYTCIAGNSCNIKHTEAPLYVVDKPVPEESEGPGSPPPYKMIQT

B1: MYT11027 (antibody, V domains shown)
VH: EVQLVESGGGLVQPGGSLRLSCTASHLSLSSYWMSWVRQAPGKGLEWVGVISAGGNTYYANWAKGRFTISRDTSKNTVYLQMNSLRAEDTAVYFCARGDDGYTNAAYVSNLWGQGTLVTVSS
VL: EIVMTQSPSTLSASVGDRVIITCQASQSISSWLSWYQQKPGKAPKLLIYKASTLASGVPSRFSGSGSGAEFTLTISSLQPDDFATYYCQSYFDSTTIAFGQGTKLTVL
notes: MYT9361 HC variant
B2: MYT11029 (antibody, V domains shown)
VH: EVQLVESGGGLVQPGGSLRLSCTASGLHLSSYWMSWVRQAPGKGLEWVGVISAGGNTYYANWAKGRFTISRDTSKNTVYLQMNSLRAEDTAVYFCARGDDGYTNAAYVSNLWGQGTLVTVSS
VL: EIVMTQSPSTLSASVGDRVIITCQASQSISSWLSWYQQKPGKAPKLLIYKASTLASGVPSRFSGSGSGAEFTLTISSLQPDDFATYYCQSYFDSTTIAFGQGTKLTVL
notes: MYT9361 HC variant
B3: MYT11031 (antibody, V domains shown)
VH: EVQLVESGGGLVQPGGSLRLSCTASGLSLHSYWMSWVRQAPGKGLEWVGVISAGGNTYYANWAKGRFTISRDTSKNTVYLQMNSLRAEDTAVYFCARGDDGYTNAAYVSNLWGQGTLVTVSS
VL: EIVMTQSPSTLSASVGDRVIITCQASQSISSWLSWYQQKPGKAPKLLIYKASTLASGVPSRFSGSGSGAEFTLTISSLQPDDFATYYCQSYFDSTTIAFGQGTKLTVL
notes: MYT9361 HC variant
B4: MYT11035 (antibody, V domains shown)
VH: EVQLVESGGGLVQPGGSLRLSCTASGLSLSSYWHSWVRQAPGKGLEWVGVISAGGNTYYANWAKGRFTISRDTSKNTVYLQMNSLRAEDTAVYFCARGDDGYTNAAYVSNLWGQGTLVTVSS
VL: EIVMTQSPSTLSASVGDRVIITCQASQSISSWLSWYQQKPGKAPKLLIYKASTLASGVPSRFSGSGSGAEFTLTISSLQPDDFATYYCQSYFDSTTIAFGQGTKLTVL
notes: MYT9361 HC variant
B5: MYT11030 (antibody, V domains shown)
VH: EVQLVESGGGLVQPGGSLRLSCTASGLSHSSYWMSWVRQAPGKGLEWVGVISAGGNTYYANWAKGRFTISRDTSKNTVYLQMNSLRAEDTAVYFCARGDDGYTNAAYVSNLWGQGTLVTVSS
VL: EIVMTQSPSTLSASVGDRVIITCQASQSISSWLSWYQQKPGKAPKLLIYKASTLASGVPSRFSGSGSGAEFTLTISSLQPDDFATYYCQSYFDSTTIAFGQGTKLTVL
notes: MYT9361 HC variant
B6: MYT11034 (antibody, V domains shown)
VH: EVQLVESGGGLVQPGGSLRLSCTASGLSLSSYHMSWVRQAPGKGLEWVGVISAGGNTYYANWAKGRFTISRDTSKNTVYLQMNSLRAEDTAVYFCARGDDGYTNAAYVSNLWGQGTLVTVSS
VL: EIVMTQSPSTLSASVGDRVIITCQASQSISSWLSWYQQKPGKAPKLLIYKASTLASGVPSRFSGSGSGAEFTLTISSLQPDDFATYYCQSYFDSTTIAFGQGTKLTVL
notes: MYT9361 HC variant
B7: MYT11028 (antibody, V domains shown)
VH: EVQLVESGGGLVQPGGSLRLSCTASGHSLSSYWMSWVRQAPGKGLEWVGVISAGGNTYYANWAKGRFTISRDTSKNTVYLQMNSLRAEDTAVYFCARGDDGYTNAAYVSNLWGQGTLVTVSS
VL: EIVMTQSPSTLSASVGDRVIITCQASQSISSWLSWYQQKPGKAPKLLIYKASTLASGVPSRFSGSGSGAEFTLTISSLQPDDFATYYCQSYFDSTTIAFGQGTKLTVL
notes: MYT9361 HC variant
B8: MYT11032 (antibody, V domains shown)
VH: EVQLVESGGGLVQPGGSLRLSCTASGLSLSHYWMSWVRQAPGKGLEWVGVISAGGNTYYANWAKGRFTISRDTSKNTVYLQMNSLRAEDTAVYFCARGDDGYTNAAYVSNLWGQGTLVTVSS
VL: EIVMTQSPSTLSASVGDRVIITCQASQSISSWLSWYQQKPGKAPKLLIYKASTLASGVPSRFSGSGSGAEFTLTISSLQPDDFATYYCQSYFDSTTIAFGQGTKLTVL
notes: MYT9361 HC variant

Biological target: T1, Human PTK7 Protein, His Tag (Acro …)
Test: BLI (Octet), antibody on anti-human Fc sensor, 50 nM PTK7; grade 2 = substantially similar binding relative to parent

Binding result, binds:
B1, B2, B3, B4, B5, B6, B7, B8
